Target: αB11.4, α-crystallin domain construct of human αB-Crystallin (human) (UniProt P02511)
Test: 15N NMR relaxation

stoichiometry N: 2
Substance: αB11.4, α-crystallin domain construct of human αB-Crystallin (from UniProt P02511 57-158) (domain or fragment)
